Patent publication US20120121688A1, “PREVENTATIVE OR THERAPEUTIC AGENT AND METHOD FOR IMMUNE DISEASE” (Rinken, priority 2006, published 2012)

B1: recCryj1/2 protein: His-tagged recombinant fusion protein of Cryj1 mature protein and Cryj2 mature protein, SEQ ID NO:9 (protein)
chain: MAHHHHHHSAALEVLFQGPSDNPIDSCWRGDSNWAQNRMKLADCAVGFGSSTMGGKGGDLYTVTNSDDDPVNPAPGTLRYGATRDRPLWIIFSGNMNIKLKMPMYIAGYKTFDGRGAQVYIGNGGPCVFIKRVSNVIIHGLHLYGCSTSVLGNVLINESFGVEPVHPQDGDALTLRTATNIWIDHNSFSNSSDGLVDVTLSSTGVTISNNLFFNHHKVMLLGHDDAYSDDKSMKVTVAFNQFGPNCGQRMPRARYGLVHVANNNYDPWTIYAIGGSSNPTILSEGNSFTAPNESYKKQVTIRIGCKTSSSCSNWVWQSTQDVFYNGAYFVSSGKYEGGNIYTKKEAFNVENGNATPQLTKNAGVLTCSLSKRCRKVEHSRHDAINIFNVEKYGAVGDGKHDCTEAFSTAWQAACKKPSAMLLVPGNKKFVVNNLFFNGPCQPHFTFKVDGIIAAYQNPASWKNNRIWLQFAKLTGFTLMGKGVIDGQGKQWWAGQCKWVNGREICNDRDRPTAIKFDFSTGLIIQGLKLMNSPEFHLVFGNCEGVKIIGISITAPRDSPNTDGIDIFASKNFHLQKNTIGTGDDCVAIGTGSSNIVIEDLICGPGHGISIGSLGRENSRAEVSYVHVNGAKFIDTQNGLRIKTWQGGSGMASHIIYENVEMINSENPILINQFYCTSASACQNQRSAVQIQDVTYKNIRGTSATAAAIQLKCSDSMPCKDIKLSDISLKLTSGKIASCLNDNANGYFSGHVIPACKNLSPS
modifications: His tag

Experiments:
B220+ cells (B cells) = assay: Cytokine production by whole spleen cells co-cultured with B220+ cells (B cells) from spleen of administered mice (ELISA); assay type: cell-based, BDF1 mice; settings: B220+ cells from mice given 2 μg α-GalCer/mouse i.p., added to whole spleen cells; FIG. 1
Method: Aqueous α-GalCer or αGC liposome (International Publication WO2005/120574) at 2 μg α-GalCer/mouse was intraperitoneally administered to BDF1 mice, and after 24 hours, spleen was removed. The spleen was homogenized with a slide glass to prepare a cell suspension. Subsequently, anti-CD11c antibody magnetic beads (Miltenyi) were added thereto and CD11c^+ cells (DC) were prepared using a magnet. B220^+ cells (B cells) were prepared using anti-B220 mAb magnetic beads (Miltenyi) from the remaining cells which had not been bound to the magnet. Then, 2.5×10^5 whole spleen cells from the normal BDF1 mouse and 1×10^5 DC or 3×10^5 B cells derived from the spleen in the BDF1 mouse administered with aqueous α-GalCer or αGC liposome, suspended in 200 μL of culture medium were added in one well in a 96-well U bottom culture plate, and cultured in an incubator containing 5% CO2 at 37° C. Levels of cytokines, IFN-γ, IL-4 and IL-10 in culture supernatants after 24, 48 and 72 hours were measured by ELISA (FIG. 1).

[1] = tested on: natural type Cryj1-specific and recCryj1/2-specific antibody titers; assay: In vivo antibody production by immunization with recCryj1/2 protein or natural type Cryj1; design: species or system BALB/c×DBA/2F1 (BDF1) mice
Method: BALB/c×DBA/2F1 (BDF1) mice (female, 8 weeks of age, five mice in one group, Charles River) were intraperitoneally immunized with 10 μg of purified Cryj1 (natural type Cryj1, Hayashibara Biochemical Laboratories Inc.) derived from the cedar pollen, or 5 μg or 10 μg of the recCryj1/2 protein mixed with 2 mg of aluminium hydroxide gel adjuvant (RIKEN) at the start of the experiment (0day) and on the 14th day. The boost immunization with 1 μg of natural type Cryj1 or 5 μg or 10 μg of the recCryj1/2 protein was given to each mouse on the 41st day. Furthermore, on the 81st day, the boost immunization with 1 μg of natural type Cryj1 mixed with 2 mg of aluminium hydroxide gel was given to all mice. Blood samples were collected from orbital venous plexus on the 13th, 28th, 55th, 76th and 95th days, and levels of natural type Cryj1-specific antibody titers and recCryj1/2-specific IgE antibody titers were measured. […] The recCryj1/2-specific IgE antibody titers on the 76th day were increased in mice immunized with the recCryj1/2 fusion protein (FIG. 8). Meanwhile, on the 28th and 55th day, natural type Cryj1-specific IgG1 and IgG2a antibody titers were increased in both mice immunized with natural type Cryj1 and recCryj1/2 (FIG. 9).

[2] = tested on: natural type Cryj1-specific IgE antibody; assay: Inhibitory capacity of recCryj1/2 protein for in vivo IgE antibody production; design: species or system BDF1 mice; settings: FIG. 10
Method: BDF1 mice (female, 8 weeks of age, Charles River) were intraperitoneally immunized with 5 μg of purified Cryj1 (natural type Cryj1, Hayashibara Biochemical Laboratories Inc.) derived from the cedar pollen mixed with 2 mg of aluminium hydroxide gel adjuvant (RIKEN) at the start of the experiment (0day) and on the 14th day. On the 50th day, the boost immunization with 1 μg of natural type Cryj1 was given. Meanwhile, the blood samples were collected from the orbital venous plexus on the 14th, 29th and 57th days, and the levels of the natural type Cryj1-specific IgE antibody in serum were measured. Subsequently, on the 99th day, the levels of the natural type Cryj1-specific IgE antibody were measured in all mice, and the mice were divided into three group (5 mice in one group) so that average values of antibody titers were equal among the groups. On the 106th, 113th and 120th days, the recCryj1/2 protein (0.2 μg), the recCryj1/2 protein (2 μg), or saline was administered three times, and further the boost immunization with 1 μg of natural type Cryj1 was given on the 133rd day. The blood samples were collected from the orbital venous plexus on the 140th and 160th days, and the levels of the natural type Cryj1-specific IgE antibody in serum were measured.

| Molecule | IFN-γ production (B220+ cells (B cells)) | IL-4 production (B220+ cells (B cells)) | IL-10 production (B220+ cells (B cells)) | natural type Cryj1-specific IgG1 antibody titers ([1]; 28th and 55th day, FIG. 9) | natural type Cryj1-specific IgG2a antibody titers ([1]; 28th and 55th day, FIG. 9) | recCryj1/2-specific IgE antibody titers ([1]; 76th day, FIG. 8) | increase of the natural type Cryj1-specific IgE antibody after immunization with adjuvant and natural type Cryj1 on the 81st day ([1]; 94th day, mice earlier immunized with 5 or 10 μg, FIG. 7) | natural type Cryj1-specific IgE antibody titers ([1]; days 28, 55 and 76, i.p. immunization with aluminium hydroxide gel days 0 and 14, boost day 41, FIG. 7) | natural type Cryj1-specific IgE antibody titers versus saline group ([2]; 127th day, 0.2 or 2 μg administered on days 106, 113, 120 to Cryj1-sensitized mice) | natural type Cryj1-specific IgE antibody titers after the boost immunization (133rd day) ([2]; 160th day, increased in saline group) |
| --- | --- | --- | --- | --- | --- | --- | --- | --- | --- | --- |
| CCCCCCCCCCCCCCCCCCCCCCCCCC(=O)N[C@@H](CO[C@H]1O[C@H](CO)[C@H](O)[C@H](O)[C@H]1O)[C@H](O)[C@H](O)CCCCCCCCCCCCCC [aqueous α-GalCer, α-galactosylceramide] | not detected | not detected | not detected |  |  |  |  |  |  |  |
| B1 |  |  |  | increased | increased | increased | scarcely observed | not increased at all | higher | decreased |
